Key:
Assay in all cases: flow cytometry, transfected 293T cells
[1] = target: T1, muCDH19(44-461)::huCDH19(464-772) with Flag tag (construct H, Hu EC5) (human/mouse chimera)
T1 construct: leader left out; the entry starts at residue 44; also called C137915
T1 chain: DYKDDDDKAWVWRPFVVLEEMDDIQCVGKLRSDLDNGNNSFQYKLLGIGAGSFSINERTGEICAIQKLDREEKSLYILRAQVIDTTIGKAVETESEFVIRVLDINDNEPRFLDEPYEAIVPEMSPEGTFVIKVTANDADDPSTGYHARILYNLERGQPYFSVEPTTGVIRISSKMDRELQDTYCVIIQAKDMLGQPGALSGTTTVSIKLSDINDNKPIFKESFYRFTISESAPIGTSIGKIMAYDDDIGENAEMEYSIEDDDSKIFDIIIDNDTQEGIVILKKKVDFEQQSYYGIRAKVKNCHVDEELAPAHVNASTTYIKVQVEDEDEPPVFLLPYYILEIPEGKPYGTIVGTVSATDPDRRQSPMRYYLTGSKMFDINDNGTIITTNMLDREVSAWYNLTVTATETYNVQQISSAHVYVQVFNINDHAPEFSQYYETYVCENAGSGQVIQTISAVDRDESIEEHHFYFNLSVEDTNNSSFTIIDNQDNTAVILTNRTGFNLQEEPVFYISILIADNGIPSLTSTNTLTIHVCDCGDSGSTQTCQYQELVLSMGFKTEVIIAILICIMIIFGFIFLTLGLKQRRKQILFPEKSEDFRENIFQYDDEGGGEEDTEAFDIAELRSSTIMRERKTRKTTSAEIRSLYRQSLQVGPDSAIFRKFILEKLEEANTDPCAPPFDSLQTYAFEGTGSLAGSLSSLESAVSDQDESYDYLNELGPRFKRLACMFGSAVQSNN
Excerpt: (§1) The experiment included assaying the anti-CDH19 antibodies against mouse Cadherin19 to determine suitability for binning on these human/mouse chimeras.

[2] = target: T2, muCDH19(44-770) with Flag tag (construct I, Mu EC1-5) (mouse)
T2 construct: leader left out; the entry starts at residue 44; also called Mo EC1-5; mouse Cadherin19
T2 chain: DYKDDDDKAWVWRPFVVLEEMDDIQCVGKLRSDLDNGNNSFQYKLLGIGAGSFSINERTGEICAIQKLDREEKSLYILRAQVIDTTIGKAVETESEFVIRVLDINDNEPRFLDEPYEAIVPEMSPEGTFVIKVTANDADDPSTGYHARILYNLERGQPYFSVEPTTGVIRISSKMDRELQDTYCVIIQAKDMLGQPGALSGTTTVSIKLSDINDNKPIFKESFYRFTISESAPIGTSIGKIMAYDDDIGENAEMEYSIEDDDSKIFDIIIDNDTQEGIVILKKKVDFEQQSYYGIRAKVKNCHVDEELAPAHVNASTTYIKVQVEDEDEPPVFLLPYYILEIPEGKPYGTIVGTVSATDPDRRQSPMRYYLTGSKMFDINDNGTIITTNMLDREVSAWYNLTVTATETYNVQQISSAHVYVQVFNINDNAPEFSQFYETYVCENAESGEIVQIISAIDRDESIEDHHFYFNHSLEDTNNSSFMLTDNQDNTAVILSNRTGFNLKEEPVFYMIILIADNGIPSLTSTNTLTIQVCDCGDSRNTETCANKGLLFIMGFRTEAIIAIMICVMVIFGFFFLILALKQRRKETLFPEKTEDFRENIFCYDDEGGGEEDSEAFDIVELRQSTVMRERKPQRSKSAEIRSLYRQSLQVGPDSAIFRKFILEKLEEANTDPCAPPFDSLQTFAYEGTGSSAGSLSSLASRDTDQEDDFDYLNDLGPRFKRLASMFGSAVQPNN
Excerpt: as §1

[3] = target: T3, muCDH19(44-362)::huCDH19(365-772) with Flag tag (construct G, Hu EC4-5) (human/mouse chimera)
T3 construct: leader left out; the entry starts at residue 44; also called C137917
T3 chain: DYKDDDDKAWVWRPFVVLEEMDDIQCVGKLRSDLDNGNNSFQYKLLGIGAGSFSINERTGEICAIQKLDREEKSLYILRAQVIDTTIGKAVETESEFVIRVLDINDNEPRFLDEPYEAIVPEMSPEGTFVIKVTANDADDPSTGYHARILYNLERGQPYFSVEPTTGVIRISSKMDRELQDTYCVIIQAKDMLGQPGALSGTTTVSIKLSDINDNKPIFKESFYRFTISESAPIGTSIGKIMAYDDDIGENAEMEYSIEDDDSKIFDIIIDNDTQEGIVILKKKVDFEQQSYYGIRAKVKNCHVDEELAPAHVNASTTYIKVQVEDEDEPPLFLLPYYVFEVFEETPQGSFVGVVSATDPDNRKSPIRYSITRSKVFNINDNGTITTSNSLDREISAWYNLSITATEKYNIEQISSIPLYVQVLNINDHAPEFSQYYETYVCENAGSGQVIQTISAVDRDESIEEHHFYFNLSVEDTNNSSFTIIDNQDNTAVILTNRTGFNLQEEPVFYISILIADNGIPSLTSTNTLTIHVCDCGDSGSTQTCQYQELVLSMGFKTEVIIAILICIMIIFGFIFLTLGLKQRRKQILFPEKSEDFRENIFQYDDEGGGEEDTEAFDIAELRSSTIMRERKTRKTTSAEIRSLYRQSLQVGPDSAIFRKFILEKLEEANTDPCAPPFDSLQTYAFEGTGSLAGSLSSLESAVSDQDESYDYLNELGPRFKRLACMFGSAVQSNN
Excerpt: as §1

binding result [1]: binds
binding result [2]: binds
binding result [3]: binds
B1: anti-CDH19 antibody 2G6 (Ab ID 13588) (antibody, human IgG1, lambda, V domains shown)
VH: QVQLVESGGGVVQPGRSLRLSCAASGFTFSSYGMHWVRQAPGKGLEWVAFIWYDGSNKYYADSVKDRFTISRDNSKNTLYLQMKSLRAEDTAVYYCARRAGIIGTIGYYYGMDVWGQGTTVTVSS
VL: SYELTQPPSVSVSPGQTASITCSGDRLGEKYTCWYQQRPGQSPLLVIYQDTKRPSGIPERFSGSNSGNTATLTISGTQAMDEADYYCQAWDSSTVVFGGGTKLTVLG
notes: Bin 4
